Experimental data taken from publication doi:10.1101/2021.02.01.429088 (bioRxiv, 2021).
Where two headings read alike, the source gives them in different places.

How the values were obtained:
[1] = target: the molecule itself; experiment: SEC
[2] = target: the molecule itself; experiment: SEC; remark: listed apart in the source

B1: T3D σ1 Body-Head (170-455), wild type (domain or fragment, mammalian orthoreovirus T3D (Dearing))
chain: GAMAVTSAGAPLSIRNNRMTMGLNDGLTLSGNNLAIRLPGNTGLNIQNGGLQFRFNTDQFQIVNNNLTLKTTVFDSINSRIGATEQSYVASAVTPLRLNSSTKVLDMLIDSSTLEINSSGQLTVRSTSPNLRYPIADVSGGIGMSPNYRFRQSMWIGIVSYSGSGLNWRVQVNSDIFIVDDYIHICLPAFDGFSIADGGDLSLNFVTGLLPPLLTGDTEPAFHNDVVTYGAQTVAIGLSSGGAPQYMSKNLWVEQWQDGVLRLRVEGGGSITHSNSKWPAMTVSYPRSFT
- stoichiometry N [1]: 3

B2: T3D σ1 Tail-Body (25-291) (domain or fragment, mammalian orthoreovirus T3D (Dearing))
chain: GAMASKGLESRVSALEKTSQIHSDTILRITQGLDDANKRIIALEQSRDDLVASVSDAQLAISRLESSIGALQTVVNGLDSSVTQLGARVGQLETGLAELRVDHDNLVARVDTAERNIGSLTTELSTLTLRVTSIQADFESRISTLERTAVTSAGAPLSIRNNRMTMGLNDGLTLSGNNLAIRLPGNTGLNIQNGGLQFRFNTDQFQIVNNNLTLKTTVFDSINSRIGATEQSYVASAVTPLRLNSSTKVLDMLIDSSTLEINSSGQLTVRS
- stoichiometry N [2]: 3

B3: T3D σ1 Head (293-455), wild type (domain or fragment, mammalian orthoreovirus T3D (Dearing))
chain: GAMASPNLRYPIADVSGGIGMSPNYRFRQSMWIGIVSYSGSGLNWRVQVNSDIFIVDDYIHICLPAFDGFSIADGGDLSLNFVTGLLPPLLTGDTEPAFHNDVVTYGAQTVAIGLSSGGAPQYMSKNLWVEQWQDGVLRLRVEGGGSITHSNSKWPAMTVSYPRSFT
- stoichiometry N [2]: 3
